# Test results from the DeepSol protein solubility set.
# Experiment: soluble on expression in E. coli; label from the status in PepcDB or PDB records
row,Sequence,soluble on expression in E. coli
1,MGHHHHHHSHREMVLQFLAFSRVAQDCRGTSWPKTVYFTFQFYRFPPATTPRLQLVQLDEAGQPSSGALTHILVPVSRDGTFDAGSPGFQLRYMVGPGFLKPGERRCFARYLAVQTLQIDVWDGDSLLLIGSAAVQMKETSHIFSVSQ,not soluble
2,MFQRLFGRERHANRAITDALYAQIVAAARQTVFYSHWNVPDTPLGRFEMLSLHMFLFQHRLRGEGGVAQEIAQVLIDEFFLDVDHSLRELGIGDVGVPKRMKKLAKMFYGRTAAYDDALDRNDRDGLTAALARNVRPDAGTWPEAPQLADYVADACRQLAAQPSQSIVSGTAVFPLAKGGALEHHHHHH,not soluble
3,MQWVKQLNVVFCTMLFSFSSYANLSDFKVATWNLQGSSAVNESKWNINVRQLLSGEQGADILMVQEAGSLPSSAVRTSRVIQHGGTPIEEYTWNLGTRSRPNMVYIYYSRLDVGANRVNLAIVSRRQADEAFIVHSDSSVLQSRPAVGIRIGTDVFFTVHALATGGSDAVSLIRNIFTTFTSSPSSPERRGYSWMVVGDFNRAPVNLEAALRQEPAVSENTIIIAPTEPTHRSGNILDYAILHDAHLPRREQARERIGASLMLNQLRSQITSDHFPVSFVHDR,soluble
4,MSLEKHNEHKTLNHKSSKEKDQITNRLKRIEGQVRGIQNMVENDRYCVDILVQISAVQAAMKNVALHLLEDHAHHCVADAIKSGDGEQAISELLDVFKKFTKSEGHHHHHH,soluble
5,MGSDKIHHHHHHMREYIKEGIKLAVTNIPEDVVSAIREALEREESKIAKYNLEMILKAIDISRKEGIPVCQDTGTPIFFVRTNGPINKIYDEIVKGVEIATREVPLRPNALHVLDGKVIGNVPEVHFEPGKETLISILMKGGGSENCTALFPLTPAEGLEGVKNKVIEHVQSCGGKPCPPIIVGIGIASPAEKAIILAKKALLRRISERHPNEKLAKFERELLEEINSLGIGPMGLGGRTTALDVKVEVETRHPASYIVGVVIQCWAHRRAFIKVSEGGVKIWQ,not soluble
6,MGSDKIHHHHHHMTETLLVTGAAGQLGRGVIRYLMDTHKVPPAKIIATTRNPENVADLAARGVVVRAADFNDATSLENAFKGADRVLIISTSDLDLKTGRRLKQHEAAVAAAKKAGVSHLLYTSMPNPEPVSPVLFAGDHYGTEQAIKASGIAYTIFRNGWYQENLFIALPHAIASGQWYTSAGDGRIAHGSRDDMAAAIAAGLASGSTDSKTYTLTGPQAYTTAEIAALVSEVTGKPLEVIQLPDEALTEGVKAAGVPEEFARVIVSFDANTRSGRIAMATDAVETLSGRKPRTLKQFLEANKAALAG,not soluble
7,LVPRGSAMGISNDSSRGANRTIVVTTILESPYVMYKKNHEQLEGNERYEGYCVDLAYEIAKHVRIKYKLSIVGDGKYGARDPETKIWNGMVGELVYGRADIAVAPLTITLVREEVIDFSKPFMSLGISIMIKKGTPIESAEDLAKQTEIAYGTLDSGSTKEFFRRSKIAVYEKMWSYMKSAEPSVFTKTTADGVARVRKSKGKFAFLLESTMNEYIEQRKPCDTMKVGGNLDSKGYGVATPKGSALGTPVNLAVLKLSEQGILDKLKNKWWYDKGECG,soluble
8,MGSDKIHHHHHHMKSVQDRLSQTTNPSPKSYQQLYQEIVSDPEVAAFIKKEGLTQQEITLSISKFLEYISQRDLFVKQDEAYIAKGYQPVLVMNEGYADVSYLETEELVEYRRLEAIKNRIQLINMPASLKNVTVADIDKSDENRVEVMLAIADFVKRFEEKPKGLYIYGNFGIGKSYLMAYLANLLSKTHLQSTTMLHYPTFVVDIKNAIKDGSVKERIDEIKMAQVLVLDDIGAEQHSPWVRDDVLQVILQYRMQENLPTFFTSNFSFDDLERHFASGKSGDETWQAKRVMERIRYLARDLHLKGNNRR,not soluble
9,MGSDKIHHHHHHMKRPLKVLVVGAKFGELYLNSFLLEQPGLQLAGLLANGSPRARALANAFGIALYTDIEQLPDDLDIACVVVRSAVVGGAGGQLTESLLRRGLHVIQEHPVHPDELVRHQQLATRMGCQYIVNSFYPHTEAGRCWAGTAQRISRLLEGRKPNLAQLTTSRQLLYSGLDLLFQALGCDLARQVSVSLLDGDDDFHTLSLNLPDSRVLLRLQRWMAADDPDLHSLVMHQLNLAWPSGYLSLDATYGPVNWTPALHAEAHDDDRQTLYTSNADYLQHATAMPLHPAASHWRSAHEIEGPAGVGWLLQQLLAVLQGRPRADGLQADYQLAVARLWQDILRCAGPAEQRMASAPLFIDAAQLRAEG,not soluble
10,MKKERKPKIVIMGGGTGLSVLLRGLKQYPVDITAVVTIADDGGSSGRLRDELEIPPPGDIRNVLVALSDVEPLVEALFQHRFTTGDGLKGHALGNLLLAGMTSITGDFFHAITETSKVLNVRGRVLPAANQSAVLHAELEDGEIVTGESKIPYYGKKINRVFLTPEDVEPLHETLAEIKRADLLVFGPGSLYTSILPNLVVNKIGDAVLAAKAKKVYVCNVMTQAGETMGYTAFDHVQALHDHLGQPFINTAIVNNREIPCELRKSYEEEMSTPVVVDEERFVENNIDVIQEGLAKYDDHVVRHDTLKLASILYSLLMAGDPLEHHHHHH,soluble
11,MSLYQSIVFIARNVVNSITRILHDHPTNSSLITQTYFITPNHSGKNISFHLFHDFKYCSADTRHYSQLIIFPVKENSRPTQVSRPLGGRPHESVFLPKFTRTQNSYCLTRLDRMGFPPPRKASTIMHFFQDDRTVMCSPKDGIPVSSFHIMICFLERRKGN,soluble
12,MNTAQLTSKQTLSYVEQTALVLLGMGEDAAAKVLQHFTRDETQRVTRAMAKLNGIKSDSARGVIQNFFEDFREHSGIRGASKEYLSNTLRKALGNDLAKGLLNNLYGDEIRNNMQRLQWVEAETLARFIVNEHPQMQAIFLAYLPADSSSAVLKHLPQDYHDEIIFRIAQLQDIDHQVATDLHELVERCIEKVSASQSVPLSGVKQAADIINRFEGDRGSLMEMLKLHDEEVVNAIEEN,not soluble
13,MGSDKIHHHHHHMDYSSKDIKSIISEILDKKKAKGGVKSIYVVGCGGSLGALYPAKTFMEKECTSIKSAWINSSEFIHSTPKDFGVNSIICLACHKGNTPETIAAAKLGKEMGATVIILTWLKESEIIEFGDYIIRYTFDASPDHLKGDIDYSGEKTICALLVAVELLAQTEGYENYNKFYEGTKMISNIIKNARNHVAERAVKFAEKYKDDSVIYTMGSGASYGAAYMESICIFMEMQWLNSSSIHTGEYFHGPFEITDANRPFMIQISEGSTRDLDERALKFLNTYAKRIEVLDAKELGLSTIDASVVDYFNHSLFNNVYPIYNHELATKREHPLPTRRYMWKVEY,not soluble
14,AIAEKLSEWKKFRIDSDKNDWIEQVDISGAKSLYEKEAQDKPLRVLVLYGSLRQRSFTRCCAYEAARLLDHLGADVRVFDPTELPVKGQVEETHHKVQELRELALWSEAQFWCSPEMHGNVTGCFKNQIDWIPLSLGSVRPTQGRTLAICQVNGGSQSFNAVNTLRVLGRWMRMFTIPNQSSIPKAWQEFDEYNRMKPSPLRDRLVDVVEELVKFSLMLRDHSSFHCVCQKL,soluble
15,GSVPATLPQLTPTLVSLLEVIEPEVLYAGYDSSVPDSTWRIMTTLNMLGGRQVIAAVKWAKAIPGFRNLHLDDQMTLLQYSWMYLMAFALGWRSYRQSSANLLCFAPDLIINEQRMTLPGMYDQCKHMLYVSSELHRLQVSYEEYLCMKTLLLLSSVPKDGLKSQELFDEIRMTYIKELGKAIVKREGNSSQNWQRFYQLTKLLDSMHEVVENLLNYCFQTFLDKTMSIEFPEMLAEIITNQIPKYSNGNIKKLLFHQK,soluble
16,GSRPATPPVTPPSREGHVADLDRFPQDLRVYAMKAGADRQLLPFTEQAAQDARWNRRFFAPWRMTRISVPVKDVAAPFGTDGRPRGYAENLLPWDVTRWGALASGAALDLYPSQAWKGIVVSNSALREVPTLRPMFTAPTRAGQGYPFDMFQRTAVWMGTPVFVGHATADRAWLYVETAFAAGWMPAADVARVDDAFMTRYESGSLAAILRDDTSLNGADGTHLATAHIGTVLPLSGASQVGRTVLVPVRAPEGHAVVVPVLLTSGEAAQKPVPLTPGNMAELGNRMMGQPYGWGGLYEDRDCSSTLRDLFTPFGLWLPRNSASQAKAGRYVDIAKLDADDKEARIVAEGVPFMTLLWLRGHITLYLGLHEGQAAMFHNMWGIRTHRGGVEGRYVLGRAVVTSTRPGLDVPGNDNADGLLGRMQGMSILPGGAQ,soluble
17,MGSDKIHHHHHHMHSAALLQKVDELPRLPKAIAELLDVVNNEDSTVKAVSEKLSHDPVLSARVLRLANSARFGCSREVGTIDDAVVRLGMQTLRTLVIASAVVGAVPKVEGFDLADFWGNTFEVAIICQELAKRLGTLPEEAFTCGILHSIGELLIVNGDPAVAATISAAVADGADRNLMEKELLGYDNAEIGALLAQSWKFTPHLVKGIQFQNHPKSAEPYSKLAGMLAMAKQIAADWDKIPDDERTSWLAQINILAGIKVDLGGLAEKLAKMHGQGMEMGKQLA,not soluble
18,MAEDEIVVEEEQSQPQEITPVPPSSSSSPSLVVEDDDEMKLKHLEFIQVAAVYFAACFSTLYELAKDNAGPLKLGVENIEDCVRTVLAPLYEKFHDVPFKLLLFVDRKVDDVFFDVETYVPSLVKQASSQALTVATEVQRTGVVDTTKSIARSVRDKYEPAAEYYAATLWRLLNQLPLFPEVAHLVIPTAFYWSEKYNDAVRYVGDRDYFGAEYLPMIPIEKISDILEQDQCRAD,not soluble
19,MGSDKIHHHHHHMFEGPIIDARIKSIASGFRAVSVYVDATSAEEGRFDPRLLGEACDCALADGPAWAEAHLASWSDAYAVFGAKPNRTPCSAQALRKRVLKDGTLSTINPIVDLYNAISLKYAVPVGGENFDAYVGRPHLTVADGSETFDTMVNGEAVNDPPLPGEVIWRDDIGVTCRRWNWRQGTRTRLKTLTGRMWFVLEALETMPDDALAEATDAMVGGLNALMPGCKIASQEIAIAG,not soluble
20,MRVAIPAEDDRGIKSNVSKHFGRSRYFVFVDIEGEDVKNVEVVEVPFEEHGPGDLPNFIKDHGAKIVLTYGIGRRAIEYFNSLGISVVTGVYGRISDVIKAFIGGKLKIDYDWKEKIEKEH,soluble
21,MKRDARDAPKSITLGFEADCVTLPIDAILPLRALGKSAKSSRKYRQIAASIAQIGIVEPPVVVRNPDRSATWLLLDGHMRIEALKDAGGSEVECLVSTDDEAFTYNRQISRLAPIQEHKMIRKAIERGVPEEKIALALDLNMSSIRRKARLLDGICEEAVAILKDKPCTNAVFDALRKMRTMRQIEAAELLVNANNYSVAYVNAILAGTPQAQLVESSKPKKVKGITPDAMARMEQELARLQEGIASIQDTYGEDHLHLTVIKGYVGKLLGNARVVRYLAQNHPEFLGEFQTITEITPAEADAAE,not soluble
22,MGSDKIHHHHHHMAKQQFNKLIWLVDTIFRNAPVTFAEINRRWRAGDDNRSDIPLRTFHNHRQAIEEIFDINIECDKRNNTYYIADAEGMLGDKLKMWLLNSFSLNNVLQENVDMKNRIVFEEVPSGVQFMDLVIDAMRSGRVLAMEYQAYNWEHSKDVLLEPYFVKLFRHRWYLIGINREYKAFRSYSLDRIKRIALSEETFNFPRKFTPQDHFRDSFGIIRDENLLPQHTVLRTTISQAPYLRNLPLHSSQKEIAVTESYVDFELYISHTYDFIQELLSKGAAVEVLKPQSLRDKIKAEIQNMQTLYHL,not soluble
